Experimental data reported in patent US20220348679A1 (MYTHIC THERAPEUTICS, published 2022).
Residue numbers refer to the chain shown, from its start. Each block holds one binder with its values, some of them ahead of it.

Target: T1, LRRC15 on U-87 MG (LRRC15+) cells (UniProt Q8TF66 22-581, limits assumed)
T1 construct: whole, on cells; also called cell surface LRRC15
T1 sequence (looked up): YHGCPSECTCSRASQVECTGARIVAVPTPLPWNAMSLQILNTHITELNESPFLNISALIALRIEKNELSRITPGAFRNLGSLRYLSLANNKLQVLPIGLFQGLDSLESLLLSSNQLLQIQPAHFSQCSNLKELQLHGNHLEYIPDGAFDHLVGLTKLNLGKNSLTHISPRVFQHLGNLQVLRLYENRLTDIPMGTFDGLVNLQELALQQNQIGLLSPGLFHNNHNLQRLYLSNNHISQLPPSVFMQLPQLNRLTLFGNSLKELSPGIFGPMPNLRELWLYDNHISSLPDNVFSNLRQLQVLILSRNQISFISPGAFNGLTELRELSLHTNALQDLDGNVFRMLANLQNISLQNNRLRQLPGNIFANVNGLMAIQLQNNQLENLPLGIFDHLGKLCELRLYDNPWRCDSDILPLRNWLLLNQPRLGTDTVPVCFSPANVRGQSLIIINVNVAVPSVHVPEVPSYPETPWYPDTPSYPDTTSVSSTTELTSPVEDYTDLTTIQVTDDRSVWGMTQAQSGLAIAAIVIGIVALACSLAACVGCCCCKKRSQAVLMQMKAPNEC
Test: flow cytometry on U-87 MG (LRRC15+) cells; the text of Example 22 calls the fitted value a dissociation constant KD
Protocol: Binding affinity of selected LRRC15 pH engineered antibody variants from Example 9 were measured on U-87 MG (LRRC15+) cells. 100,000 U-87 MG cells (ATCC HTB-14) were seeded per well in a 96 well deep well plate. Samrotamab and a pH engineered antibody variant were serially diluted at a 1:3 dilution in ice cold FC buffer (phosphate buffered saline (PBS), pH 7.4+2 mM ethylenediaminetetraacetic acid (EDTA)+2% (v/v) HI FBS). The plates were spun at 2,000 RPM for 2 minutes, the supernatant was removed, and 100 μL of diluted antibody was added to each well with final concentration ranging from 60 nM to 1 pM and incubated for 2 hours at 4° C. Post incubation, the cells were spun at 2000 rpm for 2 min and supernatant was discarded. Cells were washed twice with 500 μL of ice-cold FC buffer and resuspended with 100 μL of FC buffer. The cells were then transferred from the deep well plate to 96 well round bottom plate, spun at 2000 rpm for 2 min and incubated with 100 μL of 10 μg/mL Alexa Fluor 488 conjugated goat anti-human IgG secondary antibody (ThermoFisher Scientific, A11013) for 30 min. Post incubation, cells were washed with FC buffer and resuspended in 100 μL of FC buffer to read on a BD Accuri C6 flow cytometer. Binding affinity was measured as a dissociation constant KD by GraphPad Prism assuming Michaelis-Menten binding kinetics.

IC50: 0.228 nM
B1: samrotamab (antibody, V domains shown)
VH: EVQLVQSGAEVKKPGASVKVSCKASGYKFSSYWIEWVKQAPGQGLEWIGEILPGSDTTNYNEKFKDRATFTSDTSINTAYMELSRLRSDDTAVYYCARDRGNYRAWFGYWGQGTLVTVSS
VL: DIQMTQSPSSLSASVGDRVTITCRASQDISNYLNWYQQKPGGAVKFLIYYTSRLHSGVPSRFSGSGSGTDYTLTISSLQPEDFATYFCQQGEALPWTFGGGTKVEIK
notes: IgG; also called MYT0963

IC50: 0.484 nM
B2: MYT0971 (antibody, V domains shown)
VH: B1 VH with W33H
VL: B1 VL
notes: IgG
